Test results reported in doi:10.1101/2023.08.31.555674, “New structural features of the APC/C from high-resolution cryo-EM structures of apo-APC/C and APC/C^CDH1:EMI1 complexes” (bioRxiv, 2023).

How the values were obtained:
[1] = target: T1, APC8 subunit of the anaphase-promoting complex/cyclosome (human, UniProt Q9UJX2 1-597); experiment: cryo-EM structure; APC/C^CDH1:EMI1 ternary complex, 2.9 Å; complex and grids prepared as described previously [19]; Titan Krios, Falcon 3; APC/C subunits co-expressed, complex purified; conditions: both partners purified
T1 construct: APC8, human, subunit of recombinant APC/C; Stood assembled in the recombinant APC/C; the contacts are told of the copy APC8(B); also called APC8(B); source: recombinant human APC/C, modified MultiBac system, as described previously [51,52]; purified within the APC/C

[2] = target: T2, APC1 subunit of the anaphase-promoting complex/cyclosome (human, UniProt Q9H1A4 1-1944); experiment: as above; conditions: both partners purified
T2 construct: APC1, human, subunit of recombinant APC/C; Stood assembled in the unphosphorylated recombinant APC/C; source: recombinant human APC/C, modified MultiBac system, as described previously [51,52]; purified within the APC/C

binding result [1]: binds | binding result [2]: binds
B1: CDH1 (APC/C coactivator subunit) (natural protein, human, UniProt Q9UM11-2 1-493, looked up)
chain: MDQDYERRLLRQIVIQNENTMPRVTEMRRTLTPASSPVSSPSKHGDRFIPSRAGANWSVNFHRINENEKSPSQNRKAKDATSDNGKDGLAYSALLKNELLGAGIEKVQDPQTEDRRLQPSTPEKKGLFTYSLSTKRSSPDDGNDVSPYSLSPVSNKSQKLLRSPRKPTRKISKIPFKVLDAPELQDDFYLNLVDWSSLNVLSVGLGTCVYLWSACTSQVTRLCDLSVEGDSVTSVGWSERGNLVAVGTHKGFVQIWDAAAGKKLSMLEGHTARVGALAWNAEQLSSGSRDRMILQRDIRTPPLQSERRLQGHRQEVCGLKWSTDHQLLASGGNDNKLLVWNHSSLSPVQQYTEHLAAVKAIAWSPHQHGLLASGGGTADRCIRFWNTLTGQPLQCIDTGSQVCNLAWSKHANELVSTHGYSQNQILVWKYPSLTQVAKLTGHSYRVLYLAMSPDGEAIVTGAGDETLRFWNVFSKTRSTKESVSVLNLFTRIR
notes: CDH1, human; the last residue printed for CDH1 is 493 (chimera: residues 24 to 493 of CDH1), so the isoform of 493 residues is meant; the tag is told in the methods for CDH1 in general; source: expressed and purified as described previously [19,23,27]
